Positions of bridges follow the written chain, without caps; N, C: chain ends. Non-standard residues stand in square brackets, D forms with d. Nle = CCCC[C@H](N)C(=O)O
How the values were obtained:
[1] = target: human MC1 receptor (human) (UniProt Q01726); test: cell-based or functional assay
[2] = target: human MC4 receptor (human) (UniProt P32245); test: cell-based or functional assay
[3] = target: human MC1 receptor (human) (UniProt Q01726); test: SPA competition binding, displacement of 125I-NDP-α-MSH, BHK membranes with human MC1R
[4] = target: human MC4 receptor (human) (UniProt P32245); test: SPA competition binding, displacement of 125I-NDP-α-MSH, BHK membranes with human MC4R

Chain of human MC1 receptor (human) (Q01726 whole entry): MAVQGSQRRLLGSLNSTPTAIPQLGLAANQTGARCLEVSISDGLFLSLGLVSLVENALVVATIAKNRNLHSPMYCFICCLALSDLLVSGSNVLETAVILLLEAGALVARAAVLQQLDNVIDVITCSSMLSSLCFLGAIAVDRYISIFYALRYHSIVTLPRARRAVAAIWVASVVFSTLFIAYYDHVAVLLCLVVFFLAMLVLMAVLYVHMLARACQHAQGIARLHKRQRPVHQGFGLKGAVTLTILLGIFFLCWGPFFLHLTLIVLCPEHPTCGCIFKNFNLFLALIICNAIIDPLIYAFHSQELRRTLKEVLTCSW
Chain of human MC4 receptor (human) (P32245 whole entry): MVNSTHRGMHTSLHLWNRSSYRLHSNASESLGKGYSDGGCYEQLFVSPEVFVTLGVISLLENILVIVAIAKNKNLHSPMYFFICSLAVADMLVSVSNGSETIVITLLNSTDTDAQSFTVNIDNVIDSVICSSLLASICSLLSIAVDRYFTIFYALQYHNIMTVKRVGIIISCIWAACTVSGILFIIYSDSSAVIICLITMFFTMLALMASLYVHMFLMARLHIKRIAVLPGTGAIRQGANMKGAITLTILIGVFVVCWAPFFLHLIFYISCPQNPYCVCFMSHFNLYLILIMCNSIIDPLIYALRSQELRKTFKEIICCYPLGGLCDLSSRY

Binder	MC1R cAMP EC50 [1] [nM]	MC4R cAMP EC50 [2] [nM]	IC50 [3] [nM]	IC50 [4] [nM]
Ac-[dR]CPH[dF]HWCPP[dR]E[Nle][dR][dR]-NH2 (disulfide 2-8; SMILES CCCC[C@H](NC(=O)[C@H](CCC(=O)O)NC(=O)[C@@H](CCCNC(=N)N)NC(=O)[C@@H]1CCCN1C(=O)[C@@H]1CCCN1C(=O)[C@@H]1CSSC[C@H](NC(=O)[C@@H](CCCNC(=N)N)NC(C)=O)C(=O)N2CCC[C@H]2C(=O)N[C@@H](Cc2c[nH]cn2)C(=O)N[C@H](Cc2ccccc2)C(=O)N[C@@H](Cc2c[nH]cn2)C(=O)N[C@@H](Cc2c[nH]c3ccccc23)C(=O)N1)C(=O)N[C@H](CCCNC(=N)N)C(=O)N[C@H](CCCNC(=N)N)C(N)=O) [Ac-D-Arg-c[Cys-Pro-His-D-Phe-His-Trp-Cys]-Pro-Pro-D-Arg-Glu-Nle-D-Arg-D-Arg-NH2]	126	0.32	44.1	0.35
Ac-CPH[dF]HWCPP[dR]E[Nle][dR][dR][dR]-NH2 (disulfide 1-7; SMILES CCCC[C@H](NC(=O)[C@H](CCC(=O)O)NC(=O)[C@@H](CCCNC(=N)N)NC(=O)[C@@H]1CCCN1C(=O)[C@@H]1CCCN1C(=O)[C@@H]1CSSC[C@H](NC(C)=O)C(=O)N2CCC[C@H]2C(=O)N[C@@H](Cc2c[nH]cn2)C(=O)N[C@H](Cc2ccccc2)C(=O)N[C@@H](Cc2c[nH]cn2)C(=O)N[C@@H](Cc2c[nH]c3ccccc23)C(=O)N1)C(=O)N[C@H](CCCNC(=N)N)C(=O)N[C@H](CCCNC(=N)N)C(=O)N[C@H](CCCNC(=N)N)C(N)=O) [Ac-c[Cys-Pro-His-D-Phe-His-Trp-Cys]-Pro-Pro-D-Arg-Glu-Nle-D-Arg-D-Arg-D-Arg-NH2]	–	0.16	138	0.27
Ac-[dR]CPH[dF]HWCPP[dR][dR]-NH2 (disulfide 2-8; SMILES CC(=O)N[C@H](CCCNC(=N)N)C(=O)N[C@H]1CSSC[C@@H](C(=O)N2CCC[C@H]2C(=O)N2CCC[C@H]2C(=O)N[C@H](CCCNC(=N)N)C(=O)N[C@H](CCCNC(=N)N)C(N)=O)NC(=O)[C@H](Cc2c[nH]c3ccccc23)NC(=O)[C@H](Cc2c[nH]cn2)NC(=O)[C@@H](Cc2ccccc2)NC(=O)[C@H](Cc2c[nH]cn2)NC(=O)[C@@H]2CCCN2C1=O) [Ac-D-Arg-c[Cys-Pro-His-D-Phe-His-Trp-Cys]-Pro-Pro-D-Arg-D-Arg-NH2]	179	0.19	69	0.39

From patent US20210221867A1, “Compounds Capable of Binding to Melanocortin 4 Receptor” (Novo Nordisk A/S, priority 2018, published 2021)
